Measured values taken from patent US20260130997A1 (BEAM THERAPEUTICS, published 2026).
Residue numbers refer to the chain shown, from its start.

Legend:
Experiment in all cases: binding to mutant CD45 D1-D2 protein relative to WT CD45 D1-D2; method not given
[1] = biological target: T1, mutant CD45 D1-D2 protein N263S, T264A, T266A (Homo sapiens, UniProt P08575 225-394, limits assumed)
T1 chain: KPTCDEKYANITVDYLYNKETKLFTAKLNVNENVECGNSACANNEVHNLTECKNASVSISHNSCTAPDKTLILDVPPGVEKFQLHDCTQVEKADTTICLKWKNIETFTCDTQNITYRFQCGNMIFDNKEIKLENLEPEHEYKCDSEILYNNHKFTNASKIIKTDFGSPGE

[2] = biological target: T2, mutant CD45 D1-D2 protein N263G, T264A (Homo sapiens, UniProt P08575 225-394, limits assumed)
T2 chain: T1 chain with S39G, A42T

[3] = biological target: T3, mutant CD45 D1-D2 protein I283M (Homo sapiens, UniProt P08575 225-394, limits assumed)
T3 chain: T1 chain with S39N, A40T, A42T, I59M

[4] = biological target: T4, mutant CD45 D1-D2 protein T266A, N267G (Homo sapiens, UniProt P08575 225-394, limits assumed)
T4 chain: T1 chain with S39N, A40T, N43G

[5] = biological target: T5, mutant CD45 D1-D2 protein N267G, N268G (Homo sapiens, UniProt P08575 225-394, limits assumed)
T5 chain: T1 chain with S39N, A40T, A42T, N43G, N44G

[6] = biological target: T6, mutant CD45 D1-D2 protein N286G (Homo sapiens, UniProt P08575 225-394, limits assumed)
T6 chain: T1 chain with S39N, A40T, A42T, N62G

[7] = biological target: T7, mutant CD45 D1-D2 protein E259G (Homo sapiens, UniProt P08575 225-394, limits assumed)
T7 chain: T1 chain with E35G, S39N, A40T, A42T

[8] = biological target: T8, mutant CD45 D1-D2 protein N257G (Homo sapiens, UniProt P08575 225-394, limits assumed)
T8 chain: T1 chain with N33G, S39N, A40T, A42T

[9] = biological target: T9, mutant CD45 D1-D2 protein T266A (Homo sapiens, UniProt P08575 225-394, limits assumed)
T9 chain: T1 chain with S39N, A40T

[10] = biological target: T10, mutant CD45 D1-D2 protein I283M, H285R (Homo sapiens, UniProt P08575 225-394, limits assumed)
T10 chain: T1 chain with S39N, A40T, A42T, I59M, H61R

B1: mAb U139AGL030-9 (mAb030-9) (antibody, mouse IgG1, kappa, V domains shown)
VH: EVKLLESGGGLVQPGGSLKLSCAASGFDFSRYWMSWVRQAPGKGLEWIGEINPTSSTINFTPSLKDKVFISRDNAKNTLYLQMSKVRSEDTALYYCARGNYYRYGDAMDYWGQGTSVTVSS
VL: DIALTQSPASLAVSLGQRATISCRASKSVSTSGYSYLHWYQQKPGQPPKLLIYLASNLESGVPARFSGSGSGTDFTLNIHPVEEEDAATYYCQHSRELPFTFGSGTKLEIKR
notes: In the biosensor assay the antibody was captured with Anti-Human IgG Fc Capture (AHC); also called mAb30-9; mAb039-9
In the case of B1, the “% Mutant Binding” value [1] is reported as 69.3%, the “% Mutant Binding” value [2] is reported as 106% and the “% Mutant Binding” value [3] is reported as 12.9%. The “% Mutant Binding” value [4] was 1.4%, the “% Mutant Binding” value [5] was 1.3% and the “% Mutant Binding” value [6] was 81.5%. The “% Mutant Binding” value [7] was 2.7%, the “% Mutant Binding” value [8] was 1.7% and the “% Mutant Binding” value [9] was 73.4%. The “% Mutant Binding” value [10] was 1%.
